Substrate in the data set: CCCC(=O)Oc1ccc([N+](=O)[O-])cc1
The data set is described as follows: initial rates of p-nitrophenyl butyrate hydrolysis. The conditions noted are these: 30 °C, 25 mM phosphate buffer pH 8, substrate 10-100 mM. In kind it is biochemical, Rhizopus arrhizus.

B1: ROL (Rhizopus oryzae lipase; wild type WROL) (Rhizopus arrhizus) (protein)
chain: SDGGKVAAATTAQIQEFTKYAGIAATAYCRSVVPGNKWDCVQCQKWVPDGKIITTFTSLLSDTNGYVLRSDKQKTIYLVFRGTNSFRSAITDIVFNFSDYKPVKGAKVHAGFLSSYEQVVNDYFPVIQEQLTANPTYKVIVTGHSLGGAQALLAGMDLYQREPRLSPKNLSIFTVGGPRVGNPTFAYYVESTGIPFQRTVHKRDIVPHVPPQSFGFLHPGVESWIKSGTSNVQICTSEIETKDCSNSIVPFTSLLDHLSYFDINEGSCL
Take B1: the Michaelis constant (Km) (as a rule, the substrate concentration at which the rate is half of its maximum) worked out at 5.56 mM; the maximum rate (Vmax) (as a rule, the top rate of the reaction or transport when substrate is in excess) was found to be 2.34 µmol/min/mg; the catalytic constant (kcat) (in general, the maximal rate divided by the concentration of active sites) was 1.25 s⁻¹; the catalytic efficiency (kcat/Km) (usually the turnover number divided by the Michaelis constant) amounted to 220 M⁻¹ s⁻¹.

Values taken from paper PMC9091645.
